Source: IntAct's records for PubMed 11698381

B1: pH-response regulator protein palA/RIM20 (Saccharomyces cerevisiae), Q12033 (parent)
chain: MSELLAIPLKRTLEVDFATELSKLIDTTSFQTASFFQSDILKVVDARNNAIAPDISIDGLSALKEYYVILLQLEKKFPNNQIEFTWFQTLSQKSRGTSQYSLQWEKLTIIYNIGCMYSLLALNSNNDAAESLKTSCLYFQNAAGCFKHVLDHQKNLETIPVVDDATLNALTSLMLAQAQECFWFKAVQDKHKDSLIAKLSQQIVDFYCEAINDAQRGKLIRSDWINHLKAKKAYFSAVTYYRIALSFNEKKQFGNVVKALQMGLQFINESTLSSQAKFKTVVESSLKEAQRDNEFIYLQEVPSELPSIKPALMVKPSSSATLLPSIKKDETLFKDLIPIEVMEYCTAYNERQDEYVEQRVTNPLASLNKLLKESLTTFQIPQGLTKVSEAELSHYQASLNNLLINNKNVQVQLDNIEQILNEEAFTDNQLRLKHGTLNWTLPESSTTNTAYYEKLKKLRGYLDEGSAIDKQTNELFQSIDKNLIGSEIRLPESNDPLTNKIKMIIQERNDYIDRTRRKSSEYRILPKIITSYKKNGTVDFEPIFIGHLKYFDEDLRYVNSTKEENIKLIEEVNLSKKNNPGRSGIEPKKMVRIDPRELYIEDLRYSFKLLDEVKENLSAGTAFYENLITSTSNLYNEVQEYDTARRAEKARLDKSLTFEDQ

Variants of: B1
Settings: with pacc_yeast RIM101, P33400
Sequence of pacc_yeast RIM101, P33400 (P33400 whole entry): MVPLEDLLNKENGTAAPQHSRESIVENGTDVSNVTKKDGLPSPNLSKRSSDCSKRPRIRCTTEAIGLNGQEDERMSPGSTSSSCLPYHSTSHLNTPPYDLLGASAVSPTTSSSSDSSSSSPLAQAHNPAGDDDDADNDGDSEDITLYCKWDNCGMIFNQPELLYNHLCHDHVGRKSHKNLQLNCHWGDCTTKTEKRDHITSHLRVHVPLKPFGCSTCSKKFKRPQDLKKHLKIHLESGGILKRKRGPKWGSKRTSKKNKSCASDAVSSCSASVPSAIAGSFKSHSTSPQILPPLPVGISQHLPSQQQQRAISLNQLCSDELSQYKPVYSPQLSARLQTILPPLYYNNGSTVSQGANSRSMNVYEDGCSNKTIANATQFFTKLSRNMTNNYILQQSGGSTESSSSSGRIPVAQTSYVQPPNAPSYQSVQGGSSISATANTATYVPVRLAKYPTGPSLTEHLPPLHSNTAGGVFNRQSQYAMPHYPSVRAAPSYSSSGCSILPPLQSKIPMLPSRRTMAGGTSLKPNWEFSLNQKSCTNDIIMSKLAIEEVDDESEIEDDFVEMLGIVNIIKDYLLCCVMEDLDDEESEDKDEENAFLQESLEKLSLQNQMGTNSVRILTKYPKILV

Row | effect of a mutation on the interaction | Variant
1 | disrupting interaction | F623A;Y624A
2 | disrupting interaction | Q177A;Q179A;E180A
